40 sequences from the supplement of paper PMC7877785 can be followed below.

A short description of this data set: self-splicing fitness, log relative to wild type (ln ratio); higher = more splicing; Tetrahymena group I intron in knt gene, E. coli kanamycin selection, DiMSum; sequences stand for … in CUCUCU…GGAGGGAAAAGUUAUCAGGCAUGCACCUGGUAGCUAGUCUUUAAACCAAUAGAUUGCAUCGGUUUAAAAGGCAAGACCGUCAAAUUGCGGGAAAGGGGUCAACAGCCGUUCAGUACCAAGUCUCAGGGGAAACUUUGAGAUGGCCUUGCAAAGGGUAUGGUAAUAAGCUGACGGACAUGGUCCUAACCACGCAGCCAAGUCCUAAGUCAACAGAUCUUCUGUUGAUAUGGAUGCAGUUCACAGACUAAAUGUCGGUCGGGGAAGAUGUAUUCUUCUCAUAAGAUAUAGUCGGACCUCUCCUUAAUGGGAGCUAGCGGAUGAAGUGAUGCAACACUGGAGCCGCUGGGAACUAAUUUGUAUGCGAAAGUAUAUUGAUUAGUUUUGGAGUACUCGUGGUCG
The gist of the method: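 Pooled colonies went to amplicon sequencing on an Illumina HiSeq 2500 after six replicate transformations. The plates were LB agar with 100 μg/mL carbenicillin, 50 μM IPTG and 0.2% rhamnose, with or without 25 μg/mL kanamycin, incubated overnight at 37°C or 30°C. The E. coli BL21(DE3) library had all eight P1ex-region intron nucleotides randomised, the intron placed in the knt kanamycin-resistance gene on pET-22b(+). DiMSum fitness is the error-weighted combination of replicate fold changes, kanamycin against none, normalised to wild type.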

± gives the uncertainty stated by the source.

For CGUCAGCAAUAUUACGCAGG, the “self-splicing fitness (ln)” value was -3.85 ± 0.3 (30 °C) and -1.69 ± 0.18 (37 °C).

Regarding CGUCAGCAAUAUUACGCCGG, the “self-splicing fitness (ln)” value is -1.69 ± 0.12 (30 °C) and -1.27 ± 0.17 (37 °C).

With CGUCAGCAAUAUUACGCUAA, the “self-splicing fitness (ln)” value reads like this: (30 °C) -2.28 ± 0.18; (37 °C) -0.0328 ± 0.15.

CGUCAGCAAUAUUACGCUCG: the “self-splicing fitness (ln)” value is, setting by setting: (30 °C) -2.69 ± 0.18; (37 °C) -1.63 ± 0.15.

Turning to CGUCAGCAAUAUUACGCUUA, the “self-splicing fitness (ln)” value was -2.18 ± 0.23 (30 °C) and -1.14 ± 0.17 (37 °C).

As for CGUCAGCAAUAUUACGGACC, the “self-splicing fitness (ln)” value was -0.189 ± 0.17 (30 °C) and 0.292 ± 0.17 (37 °C).

For the sequence CGUCAGCAAUAUUACGGAGG, the “self-splicing fitness (ln)” value was -1.93 ± 0.1 (30 °C) and -1.57 ± 0.16 (37 °C).

For CGUCAGCAAUAUUACGGCAG, the “self-splicing fitness (ln)” value runs as follows: (30 °C) -0.866 ± 0.064; (37 °C) -0.287 ± 0.077.

Regarding CGUCAGCAAUAUUACGGGCC, the “self-splicing fitness (ln)” value (30 °C) is -1.25 ± 0.087 and the “self-splicing fitness (ln)” value (37 °C) is -0.797 ± 0.11.

Consider CGUCAGCAAUAUUACGGUUC, for which the “self-splicing fitness (ln)” value was -3.67 ± 0.31 (30 °C) and -0.0181 ± 0.15 (37 °C).

As to CGUCAGCAAUAUUACGUAAC, the “self-splicing fitness (ln)” value reads like this: (30 °C) -3.29 ± 0.35; (37 °C) -2.29 ± 0.26.

On to CGUCAGCAAUAUUACGUUCU, for which the “self-splicing fitness (ln)” value runs as follows: (30 °C) -1.39 ± 0.098; (37 °C) -0.462 ± 0.11.

For the sequence CGUGAGCAAUAUUACGAAUA, the “self-splicing fitness (ln)” value is, setting by setting: (30 °C) -2.8 ± 0.28; (37 °C) -2.87 ± 0.32.

As for CGUGAGCAAUAUUACGACAG, the “self-splicing fitness (ln)” value is, setting by setting: (30 °C) -0.792 ± 0.092; (37 °C) -0.318 ± 0.1.

In the case of CGUGAGCAAUAUUACGACAU, the “self-splicing fitness (ln)” value (30 °C) was -3.809 ± 0.03 and the “self-splicing fitness (ln)” value (37 °C) is -2.19 ± 0.039.

On to CGUGAGCAAUAUUACGAGCG, for which the “self-splicing fitness (ln)” value by setting is: (30 °C) -3.57 ± 0.3; (37 °C) -2.52 ± 0.29.

In the case of CGUGAGCAAUAUUACGAGCU, the “self-splicing fitness (ln)” value was -2.79 ± 0.17 (30 °C) and -2.99 ± 0.25 (37 °C).

For CGUGAGCAAUAUUACGAUGG, the “self-splicing fitness (ln)” value is, setting by setting: (30 °C) -0.492 ± 0.1; (37 °C) -0.139 ± 0.13.

Take CGUGAGCAAUAUUACGAUUA: the “self-splicing fitness (ln)” value (37 °C) is -2.93 ± 0.25.

As to CGUGAGCAAUAUUACGCAAA, the “self-splicing fitness (ln)” value (37 °C) was -1.84 ± 0.46.

On to CGUGAGCAAUAUUACGCGGC, for which the “self-splicing fitness (ln)” value (30 °C) was -2.91 ± 0.24 and the “self-splicing fitness (ln)” value (37 °C) was -3.19 ± 0.28.

Turning to CGUGAGCAAUAUUACGCGGG, the “self-splicing fitness (ln)” value (30 °C) is -1.74 ± 0.25.

Regarding CGUGAGCAAUAUUACGCUGU, the “self-splicing fitness (ln)” value is -3.2 ± 0.26 (30 °C) and -2.43 ± 0.26 (37 °C).

Regarding CGUGAGCAAUAUUACGCUUG, the “self-splicing fitness (ln)” value is, setting by setting: (30 °C) -2.56 ± 0.11; (37 °C) -2.07 ± 0.13.

Turning to CGUGAGCAAUAUUACGGAGC, the “self-splicing fitness (ln)” value (30 °C) is -2.97 ± 0.36.

Consider CGUGAGCAAUAUUACGGAUG, for which the “self-splicing fitness (ln)” value (30 °C) is -1.55 ± 0.075 and the “self-splicing fitness (ln)” value (37 °C) was -0.983 ± 0.094.

On to CGUGAGCAAUAUUACGGCAA, for which the “self-splicing fitness (ln)” value runs as follows: (30 °C) -2.81 ± 0.2; (37 °C) -1.43 ± 0.19.

On to CGUGAGCAAUAUUACGGCCU, for which the “self-splicing fitness (ln)” value runs as follows: (30 °C) -2.22 ± 0.23; (37 °C) -3.57 ± 0.46.

In the case of CGUGAGCAAUAUUACGGUAC, the “self-splicing fitness (ln)” value runs as follows: (30 °C) -3.78 ± 0.35; (37 °C) -1.63 ± 0.31.

As for CGUGAGCAAUAUUACGUAUG, the “self-splicing fitness (ln)” value (30 °C) is -1.37 ± 0.11 and the “self-splicing fitness (ln)” value (37 °C) was -0.0658 ± 0.12.

For the sequence CGUGAGCAAUAUUACGUCAA, the “self-splicing fitness (ln)” value is, setting by setting: (30 °C) -2.01 ± 0.24; (37 °C) -1.35 ± 0.2.

With CGUGAGCAAUAUUACGUCGU, the “self-splicing fitness (ln)” value (37 °C) is -2.72 ± 0.28.

On to CGUGAGCAAUAUUACGUCUC, for which the “self-splicing fitness (ln)” value is -3.22 ± 0.21 (30 °C) and -2.29 ± 0.19 (37 °C).

Turning to CGUGAGCAAUAUUACGUGAA, the “self-splicing fitness (ln)” value (37 °C) was -1.17 ± 0.22.

In the case of CGUGAGCAAUAUUACGUUAC, the “self-splicing fitness (ln)” value (30 °C) is -3.96 ± 0.43.

For the sequence CGUUAGCAAUAUUACGAACA, the “self-splicing fitness (ln)” value was -0.595 ± 0.16 (30 °C) and 0.0081 ± 0.16 (37 °C).

Consider CGUUAGCAAUAUUACGAGCG, for which the “self-splicing fitness (ln)” value by setting is: (30 °C) -3.69 ± 0.21; (37 °C) -2.63 ± 0.21.

Consider CGUUAGCAAUAUUACGAGGU, for which the “self-splicing fitness (ln)” value (30 °C) is -4.3 ± 0.29 and the “self-splicing fitness (ln)” value (37 °C) is -2.49 ± 0.23.

For the sequence CGUUAGCAAUAUUACGAUCU, the “self-splicing fitness (ln)” value was -1.14 ± 0.091 (30 °C) and -0.132 ± 0.12 (37 °C).

For CGUUAGCAAUAUUACGCCAA, the “self-splicing fitness (ln)” value (30 °C) was -1.97 ± 0.45.
